# Measured values taken from US20260347486 (published 2026).
# T1: IL-18Rβ ECD (human)
# T1 chain: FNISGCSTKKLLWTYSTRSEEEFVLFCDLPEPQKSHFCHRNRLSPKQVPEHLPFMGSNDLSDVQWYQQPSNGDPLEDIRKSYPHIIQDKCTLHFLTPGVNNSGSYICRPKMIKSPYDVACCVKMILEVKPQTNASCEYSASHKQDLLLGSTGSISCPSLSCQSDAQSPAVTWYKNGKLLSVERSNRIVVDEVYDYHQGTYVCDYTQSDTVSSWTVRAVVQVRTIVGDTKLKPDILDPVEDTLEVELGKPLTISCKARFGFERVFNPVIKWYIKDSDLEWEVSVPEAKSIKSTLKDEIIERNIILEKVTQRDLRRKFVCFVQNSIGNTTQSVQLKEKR
# T2: IL-18Rα ECD (human)
# T2 chain: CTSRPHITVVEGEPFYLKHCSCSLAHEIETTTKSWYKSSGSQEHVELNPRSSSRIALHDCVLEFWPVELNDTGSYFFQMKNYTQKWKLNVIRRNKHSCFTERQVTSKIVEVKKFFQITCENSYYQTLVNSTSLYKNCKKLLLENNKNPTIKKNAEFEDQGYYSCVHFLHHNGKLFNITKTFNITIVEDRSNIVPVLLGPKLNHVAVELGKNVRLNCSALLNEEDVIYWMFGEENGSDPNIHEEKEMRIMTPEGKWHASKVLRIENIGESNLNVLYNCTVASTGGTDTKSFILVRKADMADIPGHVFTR
# Target: T1, IL-18Rβ ECD
# Experiment: BLI
row,Binder,binding result
1,"ms_IL18R_VHHβ19 (antibody, V domains shown) VH: DVQLQESGGGLVQAGGSLRLSCAASGIRFNPFRMAWYRQAPGKQRELVAAIDSGGSTDYADSVRGRFTISRDNAKITVSLQMNSLKPEDTAVYYCNTQIFARDYWGQGSQVTVSS",no binding
2,"ms_IL18R_VHHα6 (antibody, V domains shown) VH: DVPLQESGGGSVQPGGSLRLSCAASKSIFSINAMRWHRQAPGKQRELVATFTSSGRINYADSVKGRFTISTDNAKNTIYLQMNSLNPEDTAVYRCNVGLWEDGLWYDYWGQGTQVTVSS",no binding
3,"ms_IL18R_VHHα4 (antibody, V domains shown) VH: DVQLQESGGGLVQAGGSLRLSCAASGFTLGAYAINWFQQAPGKERARAWVLCITSSGGSAYYVDSVKGRFTVSRDNAKNTVYLQMNSLKPEDTAFYYCAAGGACAAAETMNYWGKGTLVTVSS",no binding
4,"ms_IL18R_VHHα3 (antibody, V domains shown) VH: DVQLQESGGGLVQAGGSLRLSCAASGFTLGAYAINWFRQAPGKERARAWDACITSSGRSAYYADSVKGRFTVSRDHAKNTVYLQMNSLKPEDTAFYYCAAGAACAAAGTMNYWGKGTLVTVSS",no binding
5,"ms_IL18R_VHHα5 (antibody, V domains shown) VH: DVQLQESGGGLVQAGGSLRLSCAASGRTFSNLAMAWFRQAPGKEREFVAAIDWNGDNRLYAASVKGRFTISRDNAKSTMYLQMNSLKPEDTAVYYCAADSTYSTDWYLNPLNRTRYDYWGQGTQVTVSS",no binding
6,"ms_IL18R_VHHα7 (antibody, V domains shown) VH: DVQLQESGGGLVQAGGSLRLSCAASGHTFNNLAMAWCRQAPGKEREFVSAIDWNGDNRLYAYSVKGRFTISRDNAKSTMYLQMNSLKPEDTAVYYCAADSTYSTNWYLDPLNRTTYNYWGQGTPVTVSS",no binding
7,"ms_IL18R_VHHα9 (antibody, V domains shown) VH: DVQLQESGGGLVQPGESLRLSCTASRSDFSRYTMGWYRQAPGKWRELVARITSGGIPHYADSVKGRFTISRDNAKNTVTLQMNTLQFEDSAVYYCNTVGVALWAWGQGTLVTVSS",no binding
8,"ms_IL18R_VHHα11 (antibody, V domains shown) VH: DVPLQESGGGLVQPGQSLRLSCAASGSPIRFSVMGWFQQAPGKGRDLIARITSGGIVYYTDSVKGRFTISKDNAKNTLYLQMNSLNLEDTGVYYCNRLGGALFDWGQGTQVTVSS",no binding
9,"ms_IL18R_VHHα8 (antibody, V domains shown) VH: DVQLQESGGGLVQAGGSLRLSCAASGRTFSNDAMGWFRQAPGKEREFVAAVSWSLGMTYNADSVKGRFTISRDNAKNTVYLQMNSLKPDDTAVYYCAAGPDLSDELYGYDYWGQGTQVTVSS",no binding
10,"ms_IL18R_VHHα1 (antibody, V domains shown) VH: DVPLQESGGGLVQTGGSLRLSCAASGFTFNSYAMGWYQQAPGKKYRELVAHIGSGGSTRYIDSVKGRFTISRDNAKNTVYLQMNSLKPEDTAVYYCNVYGATLRSWGQGTQVTVSS",no binding
11,"ms_IL18R_VHHα2 (antibody, V domains shown) VH: DVQLQESGGGLVQAGGSLRLSCAASGFTLLDSYDIGWFRQAPGKKREEVSCISSSGGKSTYYADSVKGRFTISRDNANNTVYLQMNSLKPEDTAVYYCAADGAEGFWSCQSGGYDYWGQGTQVTVSS",no binding
12,"ms_IL18R_VHHα10 (antibody, V domains shown) VH: DVQLQESGGGLVQAGGSLRLSCAASGLPFSSYAMGWFRQAPGKDREFVAGITWSGSSIYYRDSVKGRFTISRDNAKNTVWLQMNDLKPEDTAVYYCAAARRRVGLPLADPREYVYWGQGTQVTVSS",no binding

# Target: T2, IL-18Rα ECD
# Experiment: BLI
row,Binder,binding result
1,"ms_IL18R_VHHβ15 (antibody, V domains shown) VH: DVQLQESGGGLVQPGGSLRLSCAASGRFFTINAMGWYRQTPGKQRELVAAITSDGSTTYQDSVKGRFTISRDNANRTANLYMNSLKSEDTAVYYCNADGRFNDNGYVKNFNIWGQGTQVTVSS",no binding
2,"ms_IL18R_VHHβ19 (antibody, V domains shown) VH: DVQLQESGGGLVQAGGSLRLSCAASGIRFNPFRMAWYRQAPGKQRELVAAIDSGGSTDYADSVRGRFTISRDNAKITVSLQMNSLKPEDTAVYYCNTQIFARDYWGQGSQVTVSS",no binding
3,"ms_IL18R_VHHβ16 (antibody, V domains shown) VH: DVQLQESGGGSVPAGGSLRLSCSASGFTTDDYIIGWFRQAPGKKREGVSCISTTDGSAWYADSVKGRFTISSDNANNTVTLQMNSLLPEDTSVYYCAEVSTGTGVLYCREEFYFGMDSWGKGTPVTVSS",no binding
4,"ms_IL18R_VHHβ21 (antibody, V domains shown) VH: DVQLQESGGGLVQAGGSLRLSCAASGITFSPYVMGWYRQAPGKQRELVADMVNGGSTNYADSVKGRFTIFRDTAANTVTLQMNNLKPDDTAVYYCHIMIFGRASWGQGTQVTVSS",no binding
5,"ms_IL18R_VHHβ12 (antibody, V domains shown) VH: DVPLQESGGGLVQPGGSLRLSCRASGVGFSIYTMGWYRQAPGEQRHLVATVTTGGHINYGDSVQGRFTISRENNGNVVELQMHSLKPEDTAVYFCNAIYFGQDIWGQGTQVTVSS",no binding
6,"ms_IL18R_VHHβ13 (antibody, V domains shown) VH: DVQLQESGGGLVQPGGSLRLSCAASGISFRVNVLGWYRQAPGKPRELVASISSGDSTNYADSVKGRFTISRDNAKSTVYLQMNNLKPEDTAVYYCNARIFARDNWGQGTQVTVSS",no binding
7,"ms_IL18R_VHHβ17 (antibody, V domains shown) VH: DVPLQESGGGLVQAGGSLRLSCVASGFALDEIAVGWFRQAPGKEREGLSCISSSDGSTLYADSVKGRFTISSDNAKNTVYLQMNSLKPEDTAVYLCAAVRGSCFGRTTHWGQGTQVTVSS",no binding
8,"ms_IL18R_VHHβ18 (antibody, V domains shown) VH: DVQLQESGGGLVQAGGSLRLSCAASGRTFSSYAMGWFRQAPGMVREFVAAISWSGGSTYYADSVQGRFTISRDNAKNTVYLQMNSLKPEDTAVYYCAADRSLSGSYFGATIDYWGQGTQVTVSS",no binding
9,"ms_IL18R_VHHβ14 (antibody, V domains shown) VH: DVPLQESGGGLVQAGGSLRLSCAASDRTVSKGAMGWFRQAPGKEREFVATIGRSSGITYYADSVKGRFTISRDNAKNTWYLQMNSLRPEDTAVYYCAADSSGIIRTTSWAYDYWGQGTQVTVSS",no binding
10,"ms_IL18R_VHHβ22 (antibody, V domains shown) VH: DVPLQESGGGLVQPGGSLRLSCAAPGFALEYYAIGWFRQAPGKEREGLSCVSSSRSGGSTVYADSVKGRFTISRDNAKNTVYLQIDSLKVEDTAVYYCAGAPAYRSHYCRLQADDYTYWGQGTQVTVSS",no binding
11,"ms_IL18R_VHHβ20 (antibody, V domains shown) VH: DVQLQESGGGLVQAGGSLRLSCAASVSAFRLKVMGWYRQAPGKEREFVAAIDSGDTKSYTNAVKGRFTISGGAATNTVVLQMNSLKPEDTAFYYCNAVLFGRDYWGQGTQVTVSS",no binding

# Target: IL-18BP (human)
# Experiment: BLI
row,Binder,binding result
1,"IL18R_VHHα8β17 (antibody, V domains shown) V domain 1: DVQLQESGGGLVQAGGSLRLSCAASGRTFSNDAMGWFRQAPGKEREFVAAVSWSLGMTYNADSVKGRFTISRDNAKNTVYLQMNSLKPDDTAVYYCAAGPDLSDELYGYDYWGQGTQVTVSS V domain 2: DVPLQESGGGLVQAGGSLRLSCVASGFALDEIAVGWFRQAPGKEREGLSCISSSDGSTLYADSVKGRFTISSDNAKNTVYLQMNSLKPEDTAVYLCAAVRGSCFGRTTHWGQGTQVTVSS",no binding
2,"IL18R_VHHα2β17 (antibody, V domains shown) V domain 1: DVQLQESGGGLVQAGGSLRLSCAASGFTLLDSYDIGWFRQAPGKKREEVSCISSSGGKSTYYADSVKGRFTISRDNANNTVYLQMNSLKPEDTAVYYCAADGAEGFWSCQSGGYDYWGQGTQVTVSS V domain 2: DVPLQESGGGLVQAGGSLRLSCVASGFALDEIAVGWFRQAPGKEREGLSCISSSDGSTLYADSVKGRFTISSDNAKNTVYLQMNSLKPEDTAVYLCAAVRGSCFGRTTHWGQGTQVTVSS",no binding
3,"IL18R_VHHα8β15 (antibody, V domains shown) V domain 1: DVQLQESGGGLVQAGGSLRLSCAASGRTFSNDAMGWFRQAPGKEREFVAAVSWSLGMTYNADSVKGRFTISRDNAKNTVYLQMNSLKPDDTAVYYCAAGPDLSDELYGYDYWGQGTQVTVSS V domain 2: DVQLQESGGGLVQPGGSLRLSCAASGRFFTINAMGWYRQTPGKQRELVAAITSDGSTTYQDSVKGRFTISRDNANRTANLYMNSLKSEDTAVYYCNADGRFNDNGYVKNFNIWGQGTQVTVSS",no binding
4,"IL18R_tanVHHα2β15 (antibody, V domains shown) V domain 1: DVQLQESGGGLVQAGGSLRLSCAASGFTLLDSYDIGWFRQAPGKKREEVSCISSSGGKSTYYADSVKGRFTISRDNANNTVYLQMNSLKPEDTAVYYCAADGAEGFWSCQSGGYDYWGQGTQVTVSS V domain 2: DVQLQESGGGLVQPGGSLRLSCAASGRFFTINAMGWYRQTPGKQRELVAAITSDGSTTYQDSVKGRFTISRDNANRTANLYMNSLKSEDTAVYYCNADGRFNDNGYVKNFNIWGQGTQVTVSS",no binding
